# Results reported in patent US20170342167A1 (Hoffmann-La Roche, published 2017).
# Substitutions are numbered along the chain they refer to. Numbers in names are those of the source.
# B1: IgG1 Fc-region with L234A/L235A/P329G and H310A/H433A/Y436A in both Fc-region polypeptides (other)
# chain: DKTHTCPPCPAPEAAGGPSVFLFPPKPKDTLMISRTPEVTCVVVDVSHEDPEVKFNWYVDGVEVHNAKTKPREEQYNSTYRVVSVLTVLAQDWLNGKEYKCKVSNKALGAPIEKTISKAKGQPREPQVYTLPPSRDELTKNQVSLTCLVKGFYPSDIAVEWESNGQPENNYKTTPPVLDSDGSFFLYSKLTVDKSRWQQGNVFSCSVMHEALANHATQKSLSLSPGK
# notes: As m2; Positions are EU numbers, not positions on the entry; also called HHY-AAA mutation
# B2: IgG1 Fc-region with L234A/L235A/P329G and H310A/H435A in both Fc-region polypeptides (other)
# chain: B1 chain with A213H, H215A, A216Y
# notes: As m2; Positions are EU numbers, not positions on the entry
# B3: IgG1 Fc-region with L234A/L235A/P329G and I253A/H310A in both Fc-region polypeptides (other)
# chain: B1 chain with I33A, A213H, A216Y
# notes: as for B2
# B4: IgG1 Fc-region with L234A/L235A/P329G and I253A/H435A in both Fc-region polypeptides (other)
# chain: B1 chain with I33A, A90H, A213H, H215A, A216Y
# notes: as for B2
# B5: IgG1 Fc-region with L234A/L235A/P329G and I253A/H310A/H435A in both Fc-region polypeptides (other)
# chain: B1 chain with I33A, A213H, H215A, A216Y
# notes: As m2; Positions are EU numbers, not positions on the entry; also called IHH-AAA mutation
# B6: IgG1 Fc-region with L234A/L235A/P329G and H310A/Y436A in both Fc-region polypeptides (other)
# chain: B1 chain with A213H
# notes: as for B2
# Biological target: T1, human neonatal Fc-receptor (FcRn) (human, UniProt P55899 24-297; P61769 21-119, limits assumed, biotinylated (site not stated), coupled to streptavidin sepharose)
# T1 construct: also called FcRn receptor
# Assay: FcRn affinity chromatography
# T1 sequence (P55899 24-297 limits assumed, chain 1 of 2): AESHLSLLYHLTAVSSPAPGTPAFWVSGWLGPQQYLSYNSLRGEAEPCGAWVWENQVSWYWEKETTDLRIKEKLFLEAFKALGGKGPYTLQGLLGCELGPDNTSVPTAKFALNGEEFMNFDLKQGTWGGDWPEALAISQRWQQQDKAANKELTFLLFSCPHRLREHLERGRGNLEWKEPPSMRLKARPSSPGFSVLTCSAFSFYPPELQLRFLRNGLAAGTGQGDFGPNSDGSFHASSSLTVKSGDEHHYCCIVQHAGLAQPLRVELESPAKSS
# T1 sequence (P61769 21-119 limits assumed, chain 2 of 2): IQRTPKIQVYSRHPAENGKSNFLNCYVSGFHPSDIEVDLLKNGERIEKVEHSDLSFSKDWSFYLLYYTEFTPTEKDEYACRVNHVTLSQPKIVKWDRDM
row,Molecule,binding result
1,B1,no binding (tested: retention time below 3 minutes)
2,B2,no binding (tested: retention time below 3 minutes)
3,B3,no binding (tested: retention time below 3 minutes)
4,B4,no binding (tested: retention time below 3 minutes)
5,B5,no binding (tested: retention time below 3 minutes)
6,B6,no binding (tested: retention time below 3 minutes)

# Biological target: T1, human neonatal Fc-receptor (FcRn)
# Assay: FcRn affinity chromatography, anti-HER2 antibody
row,Molecule,retention time
1,anti-HER2 antibody symmetrically modified with E258H,45.6 min
2,anti-HER2 antibody symmetrically modified with E430H,46.4 min
3,anti-HER2 antibody symmetrically modified with K288E,45.2 min
4,anti-HER2 antibody symmetrically modified with K290H,46.2 min
5,anti-HER2 antibody symmetrically modified with K317H,46.3 min
6,anti-HER2 antibody symmetrically modified with L309H,45.5 min
7,anti-HER2 antibody symmetrically modified with N434H,52 min
8,anti-HER2 antibody symmetrically modified with Q311H,46.3 min
9,anti-HER2 antibody symmetrically modified with R255D,41.4 min
10,anti-HER2 antibody symmetrically modified with T256H,46 min
11,"anti-HER2 antibody, wild-type",46.3 min
